From patent publication US20210054097A1 (Novo Nordisk, published 2021)
Ends that are not written are not given here.

Assays:
[1] = target: T1, FX activation peptide 12-mer ATSSSGEAPDSI (human); test: peptide ELISA
T1 peptide: ATSSSGEAPDSI-biotin
Outline: (§1)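 Nanobodies (FLAG-tagged) or IgG antibodies, 2 μg/mL, incubated 1 h on C-terminally biotinylated peptide captured via streptavidin, washing buffer pH 8.60 containing CaCl₂ and Tween 20. Read-out: HRP-conjugated secondary antibody with TMB colour development.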

[2] = target: T2, FX activation peptide 12-mer TSSSGEAPDSIT (human); test: peptide ELISA
T2 peptide: TSSSGEAPDSIT-biotin
Outline: as §1

[3] = target: T3, FX activation peptide 12-mer SSGEAPDSITWK (human); test: peptide ELISA
T3 peptide: SSGEAPDSITWK-biotin
Outline: as §1

[4] = target: T4, FX activation peptide 12-mer WKPYDAADLDPT (human); test: peptide ELISA
T4 peptide: WKPYDAADLDPT-biotin
Outline: as §1

[5] = target: T5, FX activation peptide 12-mer TENPFDLLDFNQ (human); test: peptide ELISA
T5 peptide: TENPFDLLDFNQ-biotin
Outline: as §1

[6] = target: T6, FX activation peptide 12-mer PFDLLDFNQTQP (human); test: peptide ELISA
T6 peptide: PFDLLDFNQTQP-biotin
Outline: as §1

[7] = target: T7, FX activation peptide 12-mer LLDFNQTQPERG (human); test: peptide ELISA
T7 peptide: LLDFNQTQPERG-biotin
Outline: as §1

[8] = target: T8, FX activation peptide 12-mer QTQPERGDNNLT (human); test: peptide ELISA
T8 peptide: QTQPERGDNNLT-biotin
Outline: as §1

human activated Factor X = human activated Factor X (human, UniProt P00742 41-179; P00742 235-488); test: cell-based or functional assay
[9] = target: T9, human plasma-derived Factor X zymogen (human, UniProt P00742 41-179; P00742 183-488); test: apparent KD fitted from FXa generation assay
T9 construct: Plasma-derived, bought (Haematologic Technologies); also called FX; human FX
Experimental: The ability of the monovalent anti-FX Nanobody® (Nb) to promote FIXa-mediated FX-activation was determined in the presence of a procoagulant phospholipid membrane according to the principles described by Scheiflinger et al. (2008) J Thromb Haemost, 6:315-322. A Fab of mAb 13F62 (IgG1 isotype, variable sequences identified by SEQ ID NO:6 and 7), also found to bind the activation peptide, were included for comparison. Moreover, anti-FX antibodies as disclosed in U.S. Pat. No. 9,334,331 (J327 and L404-k in said publication), corresponding to the anti-FX arm of ACE910); and more recently in WO2018/021450 (J327 D31H and JYL280 in said publication) and WO2018/098363 (BIIB-12-917 represented by SEQ ID NO:427 and 615 in said publication) are stated to be suitable for use as part of anti-FIX/anti-FX bispecific FVIII mimetic compounds were, furthermore, included for comparison.
Each compound was tested individually in a concentration range from 0-1000 nM, 0-2000 nM, 0-4000 nM or 0-8000 nM by pre-incubation with 1-1.5 nM human plasma-derived FIXa (Haematologic Technologies Inc, USA) and 500 μM 25:75 phosphatidyl serine:phosphatidyl choline phospholipid vesicles (Haematologic Technologies Inc, USA) in assay buffer (50 mM HEPES, 100 mM NaCl, 5 mM CaCl₂, 0.1% (w/v) PEG8000, 1 mg/mL bovine serum albumin, pH 7.3) for 10 minutes. The reaction was initiated by addition of human plasma-derived FX (Haematologic Technologies Inc, USA) to a final concentration of 100 nM and a reaction volume of 50 μL. Following 20 minutes activation at room temperature while agitated (1000 RPM), the reaction was quenched by addition of 25 μL quench buffer (50 mM HEPES, 100 mM NaCl, 60 mM EDTA, 0.1% (w/v) PEG8000, 1 mg/mL bovine serum albumin, pH 7.3). The amount of FXa generated was determined by addition of 25 μL 2 mM S-2765 chromogenic substrate for FXa (Chromogenix, Sweden) and chromogenic substrate conversion was followed by measuring absorbance at 405 nm for 10 minutes in a microplate reader. The observed change in 405 nm absorbance (ΔAbs405/min) was fitted to the quadratic binding equation (eq. 1) to obtain the peak stimulatory activity and EC50.

[10] = target: T9, human plasma-derived Factor X zymogen; test: SPR steady state, Nb captured by anti-His mAb, FX injected
Experimental: Binding of purified anti-FX Nanobodies (Nb) to human plasma-derived FX (Haematologic Technologies Inc, USA) was probed by Surface Plasmon Resonance (SPR) (Biacore T200). Briefly, anti-His mAb (MAB050 from R&D systems) was immobilised on a CM4 sensor chip using standard amine coupling chemistry. Anti-FX Nanobodies (10 nM), according to Table 3, was injected at a flow rate of 10 μL/min for 1 minute. Subsequently 4096, 1024, 256, 64, 16, 4, and 0 nM of FX were injected at a flow rate of 30 μL/min for 4 minutes to allow for binding to anti-FX Nb followed by a 5 minutes running buffer (10 mM HEPES, 150 mM NaCl, 5 mM CaCl₂, 0.05% (v/v) Surfactant P20, 1 mg/mL bovine serum albumin, pH 7.4) injection allowing dissociation from anti-FX Nanobody®. The running buffer was also for dilution of anti-FX Nb and FX samples. Regeneration of the chip was achieved using a regeneration buffer consisting of 3M MgCl₂, 30 seconds contact time, and a 30 μL/min flow rate. The binding data were collected at 25° C. and were analysed according to a 1:1 model using BiaEvaluation 4.1 supplied by the manufacturer (Biacore AB, Uppsala, Sweden).
Therefore, the reported KD values are determined based on steady state analysis. The strongest binder identified is Nb702C12, while the others Nanobodies® tested binds FX with a slightly higher KD and lower Rₘₐₓ.

T9 sequence (P00742 41-179, chain 1 of 2): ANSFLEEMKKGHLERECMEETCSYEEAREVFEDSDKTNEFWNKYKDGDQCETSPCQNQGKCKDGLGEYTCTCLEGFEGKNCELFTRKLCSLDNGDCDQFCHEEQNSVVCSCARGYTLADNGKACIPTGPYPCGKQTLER
T9 sequence (P00742 183-488, chain 2 of 2): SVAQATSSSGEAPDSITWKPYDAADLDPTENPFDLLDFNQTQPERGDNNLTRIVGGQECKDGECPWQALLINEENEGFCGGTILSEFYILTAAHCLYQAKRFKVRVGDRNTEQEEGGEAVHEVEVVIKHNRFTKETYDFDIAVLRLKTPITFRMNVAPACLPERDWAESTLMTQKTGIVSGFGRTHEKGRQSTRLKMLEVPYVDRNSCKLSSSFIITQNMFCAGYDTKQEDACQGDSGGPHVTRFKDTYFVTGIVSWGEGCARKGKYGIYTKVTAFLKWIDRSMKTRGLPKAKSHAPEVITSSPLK
human activated Factor X, sequence (P00742 41-179, chain 1 of 2): as the sequence (P00742 41-179, chain 1 of 2) above
human activated Factor X, sequence (P00742 235-488, chain 2 of 2): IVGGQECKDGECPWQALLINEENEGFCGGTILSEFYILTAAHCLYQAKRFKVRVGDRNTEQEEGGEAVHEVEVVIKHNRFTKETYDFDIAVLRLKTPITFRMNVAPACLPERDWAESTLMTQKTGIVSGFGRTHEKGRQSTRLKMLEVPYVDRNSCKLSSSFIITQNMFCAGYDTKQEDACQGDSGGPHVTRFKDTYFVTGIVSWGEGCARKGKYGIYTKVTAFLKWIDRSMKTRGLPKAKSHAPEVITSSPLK

B1: Nb 701B09 (VHH)
VHH: EVQLVESGGGVVQPGGSLRLSCAASGRTFSTYAMGWFRQAPGKEREFVAAISWSGSRTYYADSVKGRFTISRDNSKNTVYLQMNSLRPEDTALYYCAADATPANGELDYWGQGTLVTVSS
notes: monovalent Nanobody; also called Nb 701609; not shown: C-terminal FLAG3 and HIS6 tag
[1]
  ELISA signal relative to background: 0.82
[2]
  ELISA signal relative to background: 0.97
[3]
  ELISA signal relative to background: 0.89
[4]
  ELISA signal relative to background: 1.14
[5]
  ELISA signal relative to background: 4.38
[6]
  ELISA signal relative to background: 3.48
[7]
  ELISA signal relative to background: 1.09
[8]
  ELISA signal relative to background: 0.72
Human activated Factor X
  FXa amidolytic activity (relative to free FXa, fold): 1.06 fold
[9]
  Kd: 0.0723 µM
[10]
  Kd: 2.1 µM
